# Reference: the DeepSol protein solubility set
# Assay: soluble on expression in E. coli; label from the status in PepcDB or PDB records
row,Sequence,soluble on expression in E. coli
1,MGSDKIHHHHHHMASYSLVESNSFGSENWCLKLQPSYKHGLLTGLSNGEIRLLDWSTGKSVQKIKASETAINDMKVIGSDFSAGHLVSSASIDAVKVFDIRTNDRIAQIQNEANSPFISLDSRHGLLACGTELQGIDAAVYIYDIRKWDTPLRSLIDSHHDDVTCIKFHPSDVNILLSGSTDGYTNIYDLKQDEEEDALHQVINYASIHSCGWLSPKRIFTLSHMETFAIHELNDKSDELKEPQPLDFGDVREIWNCDYVVDIYPGLIATGKTQENCGELCLLPFKDEKVDTENGIVIPHAHGDEVVRDIFIPAQHSNMLYSCGEDGCVKIWENKQGPLDIPENFWDYSKKMNVLGDDDREGSINLDEPLIIQKESVSTRPRKEKHKKAKKHSMKSRFKPY,not soluble
2,GQVIARHKVREFNINPVNTPTKSKLHPSVFYDVFPGDKEPAVLSDNDPRLEVKLTESLFSKYKGNVNTEPTENMLVAVDHYAGQLLSLDIPTSELTLKEALYGVDGLEPIDITTSAGFPYVSLGIKKRDILNKETQDTEKMKFYLDKYGIDLPLVTYIKDELRSVDKVRLGKSRLIEASSLNDSVNMRMKLGNLYKAFHQNPGVLTGSAVGCDPDVFWSVIPCLMDGHLMAFDYSNFDASLSPVWFVCLEKVLTKLGFAGSSLIQSICNTHHIFRDEIYVVEGGMPSGCSGTSIFNSMINNIIIRTLILDAYKGIDLDKLKILAYGDDLIVSYPYELDPQVLATLGKNYGLTITPPDKSETFTKMTWENLTFLKRYFKPDQQFPFLVHPVMPMKDIHESIRWTKDPKNTQDHVRSLCMLAWHSGEKEYNEFIQKIRTTDIGKCLILPEYSVLRRRWLDLFHHHHHH,soluble
3,MAHHHHHHMLHGNWKYLRQGGRQWMEKQARDPFVLEARRRGYVARSAFKLLEMDDKFGLFARNHTRVVVDIGCSPGGWLQVARERCGDRCALFGVDLLHVSPTVTGAVCIQGDFTDMAIQQQLLSRMENVHANGLVDVVMSDMCLNRGSGGTDDRQKQMQLNMEALAFATSQLRTGGNFVCKVLGTPTAFEELRGELQRWFVRSSLCKPFSSRRGSDEAFMVCLAKRETPRPRGCNIAEGETRDFGLDDWPGFLRRPRQKR,not soluble
4,APVPTYQTLIVRPGDLQQSVLATGKLDALRKVDVGAQVSGQLKTLSVAIGDKVKKDQLLGVIDPEQAENQIKEVEATLMELRAQRQQAEAELKLARVTYSRQQRLAQTQAVSQQDLDNAATEMAVKQAQIGTIDAQIKRNQASLDTAKTNLDYTRIVAPMAGEVTQITTLQGQTVIAAQQAPNILTLADMSAMLVKAQVSEADVIHLKPGQKAWFTVLGDQLTRYEGQIKDVLPTPEKVNDAIFYYARFEVPNPNGLLRLDMTAQVHIQLTDVKNVLTIPLSALGDPVGDNRYKVKLLRNGETREREVTIGARNDTDVEIVKGLEAGDEVVIGEAKPGAAQ,soluble
5,MAHHHHHHMQLSRYSPPPSSSSSSLLSTVMQAKDVVTRLGPSERFPGLCGVFLTKPIKKFHPIEVLPTAASAAATTTTAATADSSAERPDASRSPTSAIVSQAPPFVLNLAFAPRHSISLRRFLALRHMFSTSAYLHVATEDGWYLVAPSSAAPLCPDVTGLQAWCCRHHHRYLKHAATAVTAATSSSTPSSRAPRCSTHTGIAKLEAALDNGEELSEEQLQRLAAQEKAFFAHTPENEEADIDDDTDETDDMPAVREPRHPLSQKTAAPTAETLRKRSAGAPASAFGLSPPLIPEAHLFDINDGVAWLLPPSDDLANHEYWKSHRQRMALYESTGDADAAEQREALLATLRADPAIAQHLSSEQELYAAAEALFQALKHKANVTLNVDADTGLLTLVPLRDLHAGEELLLHYGREWWTGRLLFSLLLSVSDAEMPQIRWIEQLFDHAVDRSEPFPLLIVAHEQRKRPRRGCSGGAKVRKGLKNESSGDGDEQQQQSTQCASLTKPHGDSAETSSTTAMTAELPVSQRKLGRAVLYNTVTHKRATDAAVLAFAVRRSCIEPCFLSRLLAGDAAGGVEPVFYLSEPDKEVPMRVLRRVLLASLRGTTASAQRSIPHKDESASVVAGSAVADTAAAVVDQGAPPQTSTNTGGDGDDGDDAVFSV,soluble
6,MPQQNYLDELTPAFTSLLAIKEASRCLLCHDAPCSQACPAQTDPGKFIRSIYFRNFKGAAETIRENNALGAVCARVCPTEKLCQSGCTRAGVDAPIDIGRLQRFVTDFEQQTGMEIYQPGTKTLGKVAIIGAGPAGLQASVTLTNQGYDVTIYEKEAHPGGWLRNGIPQFRLPQSVLDAEIARIEKMGVTIKCNNEVGNTLTLEQLKAENRAVLVTVGLSSGSGLPLFEHSDVEIAVDFLQRARQAQGDISIPQSALIIGGGDVAMDVASTLKVLGCQAVTCVAREELDEFPASEKEFTSARELGVSIIDGFTPVAVEGNKVTFKHVRLSGELTMAADKIILAVGQHARLDAFAELEPQRNTIKTQNYQTRDPQVFAAGDIVEGDKTVVYAVKTGKEAAEAIHHYLEGACSC,not soluble
7,GMKQPNYYQDVKQFHQTFHHPGADQPTAIPLDRGVKRATWTAEEAVVEFLHQSSQNETEFLAAIETFKAGLDQAVKKSLKETYPVTEVERLVGQGDALTDALYFIMGSFVEAGLEPGPLFEIVQQANMAKLGPDGQPIFRESDQKVMKPDGWLPPEPQLEAEVVRQMKEKA,soluble
8,MTTHLPSTSQNGEEISAEQFNRIFHERNVIVLDCRSNGDSVKRANRFFCSLRLPALLQRRLMGGSMRLSTVPDLKDLNNSPDQCPEVLLIPGDSEQDEQLSAALARNLKSNHYRHFVLGEPVKTLLSQFPTLRDAADENWNTTFQMNSMPGQASGQQASSGPLLNLNQLRLEGEDQGGKQRAEFPVKLTNFLYLGNAETAKNRDVLKKYSISHVINVTSNLPNTFEEDPNMRYLRISADDNASHNLTKFFPEAISFIDDARRNDSACLVHCLAGISRSVTICLAYLMKTEMCTLDSAYEWVQKRNASIAPNFHFMGQLTDYEKMLGLNSNRVGVSRQAVNFDVHFFCIFKLKKKEENSPESRILAETAV,not soluble
9,MSGLLNFGVPKGSLENATVELFRKAGWQISISSRSYFPGVDDDEMNCKLIRPQEMGKYVERGTIDAGIAGRDWVRENESDVVEVCEMVYSKVSRRPARWVLVVTRDSAVQKPEDLHGATISTELVGFTKRYFAERNIPVTVEFSWGAT,not soluble
10,MSATNLAVEQLQRVLLPRRGEPADVRSLYLLEAESNKERLEWEDRFSVSVPAGAEVSFQTYFNAFPASYWRRWSQLDSVVLKLKVSGEARVDLYRSKIDGARIGITGSVVKDDFIEFEVSLAPFEDGGWIWFDLTAETDATVEEAGWYAPHAPKAQIMPDGSEVGPFEARATVGIPTFNRPADAVAALEALASDPAVDAVIDTVIMPDQGNKHPADEPGYKAAVEHFGDRFFEFRQGNLGGSGGYSRIMFEALGGVDGKGEAGAAKSPYILYMDDDIAIEPDSVLRALQVARYAKSPILVGGQMLNLQERSHLHTMGEVVGGHDFMWTAAPHVHYDHDFSAHPLHDRGKFDDKPDAPNSRDLHRRIDVDFNGWWMCMIPRVVAEQIGQPLPLFIKWDDAEYGLRARKAGFPTATWPGIAIWHMAWSDKDDAIDWQAYFHLRNRLVVAAMYHQGSVDGIVRSMQKATFKHLLCLEYSTVAIQNEAMKDFLAGPDQLFSILDTSLPRIAAIRKTYPDAVVLPSATELPRATGAPGVPTKDIGGRLAPIKKAMWLAKGLKHSLSKEDASHHEVPQANFAPIEARWFSLSRVDGATVTTADGRGVVYRKRDRDKAKELGKEARALQKQVAERFDELSRAYRNAHPELVSREAWGKVFDEQ,not soluble
11,SEKMSRPLPLNPTFIPPPYGVLRSLLENPLKLPLHHEDAFSKDKDKEKKLDDESNSPTVPQSAFLGPTLWDKTLPYDGDTFQLEYMDLEEFLSENGIPPSPSQHDHSPHPPGLQPASSAAPSVMDLSSRASAPLHPGIPSPNCMQSPIRPGQLLPANRNTPSPIDPDTIQVPVGYEPDPADLALSSIPGQEMFDPRKRKFSEEELKPQPMIKKARKVFIPDDLKDDKYWARRRKNNMAAKRSRDARRLKENQIAIRASFLEKENSALRQEVADLRKELGKCKNILAKYEARHGPL,soluble
12,VNFDDIASSENLLHLTANRPKMPGRRLPG,soluble
13,MATIDLQKKSVKIVLEKKQLTKVTARVGLVLDITGSMRPLYKNGTVQNVVERILAVADQFDDNGLLDVWVYDNEFPRLKPVSEKDFPGYVDREILNNDRLHKFGRNDEPPVMKDVLRNMLRRNRARILLSLFLSMTGAVKSQSNRLIEASSDKPVFWQFVGIGNGNFDFLNKLDTLEGRVIDNTNFLHIEEIDRISDDELYDALLAEFPFWLKEAKEKGIVREQEPPAEKPKKKGFFSRLFSKLEHHHHHH,soluble
14,MGSDKIHHHHHHMLRFVMNDDQQSCLVSRLSRFVALTEAECAFIAEMEKDEHERRKGRPVVQVGDPTEGIMVLKSGWAVVKADSSDGRSQILRVYLPGEVMGLAEIGSSHANHRIIMQTDGKICPFPRAGLAPLYSDYPRLGALLTAVGSLDQIALRHHASSLGAMDATGRLKFWLLQLRSRLEVANVGLGNRFRVPFSQVEIGQAVGLTSIYVNKLLRRFMDDGDLEIERPYFRLLNREQWERDCEYVNPFVDMDTSWFPPAYPEIHDSAP,not soluble
15,MNLQAREGAPLNRYYDPYFACDAVKLLPGEYFASGEDLVIVTVLGSCVSVCLRDPLNGIAGMNHFMLPERGLGGDPASPSARYGSHAMELLINRMLALGASRERLQAKVFGGGSVLRQISAAIGQRNVEFTLDYLATERIPLLASDVLEAFPRKIYFFPRNGRVLVKSLVELKNDTVLQRERDYRRRIDRNADGGPIDLF,not soluble
16,MKRSHLENALNYALENSETAYNEMFLECDKQFILESWLNDFDLTKDYNETMHLVFSIKDKPDEETMQGLLHSTWESLKIRLPEYKFALVPHAHQDHAHIHCFINKTNQLTRRRLRFKGHEDCKEFFNELRSEFAYRLNDHLLSEEYLYVNEPKLKELDNIKQQLQDLEKEEKALEQIKSPQDEWDLNKALQSEYLQELKYKNKAKALDIQNNHSTPLKQKISEFKIALFNHKDTSDDEKEQLDIDRIDKRKPVSEHLKNTNKHELYELLGFYQKELDKKQNHSAFKNFAILNGLDRDFERETNGYSVLKKKEMLLNKLEHLDKRLLDKNSHLLLAQ,not soluble
17,MTNLNYQQTHFVMSAPDIRHLPSDCGIEVAFAGRSNAGKSSALNTLTNQKSLARTSKTPGRTQLINLFEVVDGKRLVDLPGYGYAEVPEEMKRKWQRALGEYLEKRQSLQGLVVLMDIRHPLKDLDQQMIQWAVESNIQVLVLLTKADKLASGARKAQLNMVREAVLAFNGDVQVEAFSSLKKQGVDKLRQKLDSWFSELAPVEEIQDGE,not soluble
18,MATALNPGRTSAPTPEAAPKLRFDARRYLGTPAVRRIKDEVEIELADRAYLPDLNDLKRDWVASVAAPAFRVLARNRATPPRAFASIGTGSGVDALAAIELLGAEIVGITDLFEEVVATAARNVRGNVRPEAGITLHAGAGDLLIPLAPAGVKFDVIYENLPNLPVDDSRKIEADKTSAAFLAPRSEAIPVFITDWLLTMHYLALVQARDALTPDGVVLSTVGARVPLDVLAQMSRAAGLVPRVLTYGWKVQADADDVISTYANWERQGLGPFRFYAADALEAAFANLDPGEAGANAATIEASLAGEQLGAVAAWEAHRSGLRIGHTYVVLQSGLGLEHHHHHH,soluble
19,MGLSPSAPAVAVQASNASASPPSGCPMHEGKMKGCPVNTEPSGPTCEKKTYSVPAHQERAYEYVECPIRGTAAENKENLDPSNLMPPPNQTPAPDQPFALSTVREESSIPRADSEKKWVYPSEQMFWNAMLKKGWKWKDEDISQKDMYNIIRIHNQNNEQAWKEILKWEALHAAECPCGPSLIRFGGKAKEYSPRARIRSWMGYELPFDRHDWIINRCGTEVRYVIDYYDGGEVNKDYQFTILDVRPALDSLSAVWDRMKVAWWRWTS,soluble
